Data as given in publication PMC7201923.

Target: KPNA2 (UniProt P52292)
Test: anti-FLAG co-IP, immunoblot
Conditions: sites S97

Substance: IRF3 (from UniProt Q14653)
- binding against the reference: stronger
